Laboratory results reported in PMC4457826, “Crystal Structure of USP7 Ubiquitin-like Domains with an ICP0 Peptide Reveals a Novel Mechanism Used by Viral and Cellular Proteins to Target USP7” (PLoS Pathogens, 2015).
Primed or numbered codes have the meaning given here. No end group written: not given here. FITC′ = fluorescein isothiocyanate label; GST = glutathione S-transferase fusion

What was measured:
[1] = target: T1, myc-tagged USP7 D762R/D764R (human, UniProt Q93009 1-1102, D762R/D764R | D762R/D764R); assay: co-IP; 293T cells transfected with myc-USP7 (with or without ICP0); RIPA lysate, anti-myc antibody and protein A/G agarose; Western blot for ICP0, GMPS or UHRF1; conditions: partners not purified
T1 construct: USP7, human, full length with D762R and D764R, sub-cloned into pCANmycUSP7; also called MRGR; D762R/D764R (MRGR) USP7; source: 293T cells, transfected (pCANmycUSP7), in lysate

USP7-CTD (535-1102) [2] = target: T2, USP7-CTD (535-1102) (human, UniProt Q93009 535-1102); assay: fluorescence polarisation; competition: fixed USP7-CTD (8 μM), 40 nM FITC-UHRF1, increasing unlabeled ICP0 peptide (0 to 2500 μM); conditions: both partners purified
T2 construct: USP7, human, residues 535-1102 (spacer helix and five Ubl domains); Cloned in p15TV-L; also called WT USP7-CTD; C-terminal domain; source: E. coli BL21(DE3)mgk, purified (nickel-NTA, SEC)

full length USP7 [3] = target: T3, full length USP7 (human, UniProt Q93009 1-1102); assay: pull-down; GST pull-down: 250 μg USP7 protein with 250 μg GST fusion in 50 mM Tris pH 8.0, 100 mM NaCl, 5 mM DTT, 5% glycerol, on glutathione-sepharose overnight at 4°C; eluted with 30 mM reduced glutathione; Coomassie stained gel; conditions: both partners purified
T3 construct: Ubiquitin specific protease 7 (USP7, HAUSP), human, full length; also called FL-USP7; USP7-FL; source: Sf9 cells, purified (SEC)

USP7-CTD (535-1102) [4] = target: T2, USP7-CTD (535-1102); assay: as above; conditions: both partners purified
USP7-CTD (535-1102) [5] = target: T2, USP7-CTD (535-1102); assay: fluorescence polarisation; USP7 proteins titrated (0 to 200 μM) into 40 nM N-terminally FITC-labeled peptide; 0.01% Triton X-100, 150 mM NaCl, 20 mM Tris pH 7.5; conditions: both partners purified
full length USP7 [6] = target: T3, full length USP7; assay: as above; conditions: both partners purified
USP7 Ubl123 D764A = target: T4, USP7 Ubl123 D764A (human, UniProt Q93009 535-889, D764A); assay: as above; conditions: both partners purified
T4 construct: USP7, human, residues 535-889 with D764A; Synthesized (Genscript), in pET15b; also called Ubl123 mutant D764A; source: E. coli BL21(DE3)mgk, purified (nickel-NTA, SEC)

USP7 Ubl123 D762A/D764A = target: T5, USP7 Ubl123 D762A/D764A (human, UniProt Q93009 535-889, D762A/D764A | D762A/D764A); assay: as above; conditions: both partners purified
T5 construct: USP7, human, residues 535-889 with D762A and D764A; Synthesized (Genscript), in pET15b; also called Ubl123 mutant D762A/D764A; source: E. coli BL21(DE3)mgk, purified (nickel-NTA, SEC)

USP7 Ubl123 (535-889) [7] = target: T6, USP7 Ubl123 (535-889) (human, UniProt Q93009 535-889); assay: as above; conditions: both partners purified
T6 construct: USP7, human, residues 535-889 (spacer helix 535-560 and Ubl1-3); Cloned in p15TV-L; also called native Ubl123; source: E. coli BL21(DE3)mgk, purified (nickel-NTA, SEC)

USP7 Ubl123 E759A = target: T7, USP7 Ubl123 E759A (human, UniProt Q93009 535-889, E759A); assay: as above; conditions: both partners purified
T7 construct: USP7, human, residues 535-889 with E759A; Synthesized (Genscript), in pET15b; also called Ubl123 mutant E759A; source: E. coli BL21(DE3)mgk, purified (nickel-NTA, SEC)

USP7 Ubl123 D762A = target: T8, USP7 Ubl123 D762A (human, UniProt Q93009 535-889, D762A); assay: as above; conditions: both partners purified
T8 construct: USP7, human, residues 535-889 with D762A; Synthesized (Genscript), in pET15b; also called Ubl123 mutant D762A; source: E. coli BL21(DE3)mgk, purified (nickel-NTA, SEC)

USP7 Ubl12 (535-776) = target: T9, USP7 Ubl12 (535-776) (human, UniProt Q93009 535-776); assay: pull-down; GST pull-down: 250 μg USP7 protein with 250 μg GST fusion in 50 mM Tris pH 8.0, 100 mM NaCl, 5 mM DTT, 5% glycerol, on glutathione-sepharose overnight at 4°C; eluted with 30 mM reduced glutathione; Coomassie stained gel; conditions: both partners purified
T9 construct: USP7, human, residues 535-776; Cloned in p15TV-L; source: E. coli BL21(DE3)mgk, purified (nickel-NTA, SEC)

USP7 Ubl123 (535-889) [8] = target: T6, USP7 Ubl123 (535-889); assay: as above; conditions: both partners purified

T1 sequence (Q93009 whole entry D762R/D764R): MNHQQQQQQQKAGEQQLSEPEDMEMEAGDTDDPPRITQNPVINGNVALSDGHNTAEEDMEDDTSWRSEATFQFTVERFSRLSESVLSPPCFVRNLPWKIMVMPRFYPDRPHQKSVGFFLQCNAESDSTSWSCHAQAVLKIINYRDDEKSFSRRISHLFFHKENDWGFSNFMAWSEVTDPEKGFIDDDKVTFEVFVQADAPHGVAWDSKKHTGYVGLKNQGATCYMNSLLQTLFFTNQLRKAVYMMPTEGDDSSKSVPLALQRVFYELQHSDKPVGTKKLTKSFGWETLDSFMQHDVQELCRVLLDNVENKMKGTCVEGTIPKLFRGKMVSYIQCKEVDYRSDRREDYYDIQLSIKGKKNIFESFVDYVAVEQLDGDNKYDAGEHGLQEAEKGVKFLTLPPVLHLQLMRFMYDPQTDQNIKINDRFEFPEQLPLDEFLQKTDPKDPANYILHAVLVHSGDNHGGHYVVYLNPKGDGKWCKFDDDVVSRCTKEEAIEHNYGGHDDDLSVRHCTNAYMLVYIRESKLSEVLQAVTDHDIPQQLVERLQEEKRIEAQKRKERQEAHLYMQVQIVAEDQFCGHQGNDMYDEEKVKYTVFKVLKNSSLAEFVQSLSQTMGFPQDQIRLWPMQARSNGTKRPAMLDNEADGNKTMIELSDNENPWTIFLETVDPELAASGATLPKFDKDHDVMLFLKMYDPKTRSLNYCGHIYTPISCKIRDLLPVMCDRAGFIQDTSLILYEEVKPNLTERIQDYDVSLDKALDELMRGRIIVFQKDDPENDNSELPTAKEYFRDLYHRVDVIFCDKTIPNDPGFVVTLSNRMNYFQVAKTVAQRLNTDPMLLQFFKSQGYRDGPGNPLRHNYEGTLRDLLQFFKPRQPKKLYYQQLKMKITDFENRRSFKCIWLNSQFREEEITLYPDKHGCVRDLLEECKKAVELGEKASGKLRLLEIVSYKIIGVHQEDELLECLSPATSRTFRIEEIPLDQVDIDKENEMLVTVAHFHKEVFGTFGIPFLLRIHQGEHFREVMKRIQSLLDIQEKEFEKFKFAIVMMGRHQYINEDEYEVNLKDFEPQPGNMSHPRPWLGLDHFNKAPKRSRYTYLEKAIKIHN
T3 sequence (Q93009 whole entry, the tested form may be a part): as the sequence (Q93009 whole entry D762R/D764R) above, with R762D, R764D counted along it
T2 sequence (Q93009 535-1102): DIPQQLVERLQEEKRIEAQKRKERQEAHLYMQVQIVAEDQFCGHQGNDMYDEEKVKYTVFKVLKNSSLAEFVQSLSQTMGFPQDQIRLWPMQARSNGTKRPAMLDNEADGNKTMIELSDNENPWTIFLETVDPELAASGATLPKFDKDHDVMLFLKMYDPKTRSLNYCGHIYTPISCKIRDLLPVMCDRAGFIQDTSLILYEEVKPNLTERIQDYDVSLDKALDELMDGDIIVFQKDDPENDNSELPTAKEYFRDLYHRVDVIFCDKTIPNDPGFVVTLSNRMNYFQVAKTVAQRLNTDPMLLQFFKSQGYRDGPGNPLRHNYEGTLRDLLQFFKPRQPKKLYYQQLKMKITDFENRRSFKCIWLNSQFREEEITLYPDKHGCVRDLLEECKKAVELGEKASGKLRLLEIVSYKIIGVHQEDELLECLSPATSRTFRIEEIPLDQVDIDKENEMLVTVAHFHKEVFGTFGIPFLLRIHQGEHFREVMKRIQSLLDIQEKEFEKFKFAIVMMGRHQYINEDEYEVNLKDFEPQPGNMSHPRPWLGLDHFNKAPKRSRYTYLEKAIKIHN
T6 sequence (Q93009 535-889): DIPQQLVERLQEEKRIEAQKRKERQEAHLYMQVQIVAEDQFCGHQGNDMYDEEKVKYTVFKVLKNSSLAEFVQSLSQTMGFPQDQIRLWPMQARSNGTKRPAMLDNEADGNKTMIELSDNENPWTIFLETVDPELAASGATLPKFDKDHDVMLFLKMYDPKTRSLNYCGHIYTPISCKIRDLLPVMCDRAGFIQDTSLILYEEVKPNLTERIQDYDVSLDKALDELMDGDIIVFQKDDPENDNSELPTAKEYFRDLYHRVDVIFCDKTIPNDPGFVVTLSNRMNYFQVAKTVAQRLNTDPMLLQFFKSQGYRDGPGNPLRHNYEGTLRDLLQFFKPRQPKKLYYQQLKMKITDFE
T9 sequence (Q93009 535-776): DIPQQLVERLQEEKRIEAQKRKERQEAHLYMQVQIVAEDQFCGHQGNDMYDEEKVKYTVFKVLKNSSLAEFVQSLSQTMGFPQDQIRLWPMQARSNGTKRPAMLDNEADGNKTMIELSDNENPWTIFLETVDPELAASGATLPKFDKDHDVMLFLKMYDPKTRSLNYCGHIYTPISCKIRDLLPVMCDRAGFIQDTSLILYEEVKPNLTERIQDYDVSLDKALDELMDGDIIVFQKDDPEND
T7 sequence (Q93009 535-889 E759A): as the sequence (Q93009 535-889) above, with E225A counted along it
T8 sequence (Q93009 535-889 D762A): as the sequence (Q93009 535-889) above, with D228A counted along it
T5 sequence (Q93009 535-889 D762A/D764A): as the sequence (Q93009 535-889) above, with D228A, D230A counted along it
T4 sequence (Q93009 535-889 D764A): as the sequence (Q93009 535-889) above, with D230A counted along it

B1: endogenous GMPS (natural protein)
chain: not shown
notes: GMP synthase (GMPS), endogenous in 293T cells; also called GMP synthase; source: endogenous, 293T lysate
Question: For B1, which “percent binding relative to recovery with WT USP7” value [1] is on record?
Answer: 35%

Question: With GPRKCARKTRH (not fully specified) [unlabeled ICP0 peptide] as the binder, how does the Ki (USP7-CTD (535-1102) [2]) read?
Answer: 20.6 µM

B2: GST-ICP0 611-625 (peptide)
chain: AASGPRGPRKCARKT
notes: ICP0 of herpes simplex virus 1, residues 611-625; also called ICP0 region 611–625; source: E. coli BL21(DE3), purified (glutathione-sepharose)
Question: Does B2 bind (full length USP7 [3])?
Answer: binds

Question: Does B2 bind (USP7-CTD (535-1102) [4])?
Answer: binds

B3: FITC-GMPS peptide (peptide)
peptide: {FITC′}-DRTPRKRISKTLN
notes: GMP synthase (GMPS), residues 316-328 ('this GMPS peptide'); also called N-terminal FITC containing GMPS peptide; source: synthetic peptide (CanPeptide)
Question: Which Kd (USP7-CTD (535-1102) [5]) does the source give for B3 here?
Answer: 32 µM

B4: GST-ICP0 594-775 (domain or fragment)
chain: AVGALGGRQEETSLGPRAASGPRGPRKCARKTRHAETSGAVPAGGLTRYLPISGVSSVVALSPYVNKTITGDCLPILDMETGNIGAYVVLVDQTGNMATRLRAAVPGWSRRTLLPETAGNHVMPPEYPTAPASEWNSLWMTPVGNMLFDQGTLVGALDFRSLRSRHPWSGEQGASTRDEGKQ
notes: ICP0 of herpes simplex virus 1, residues 594-775; also called longer ICP0 peptide; source: E. coli BL21(DE3), purified (glutathione-sepharose)
Question: Does B4 bind (USP7-CTD (535-1102) [4])?
Answer: binds

B5: GST-GMPS peptide (316-328) (peptide)
chain: {GST}-DRTPRKRISKTLN
notes: GMP synthase (GMPS), residues 316-328; also called WT GST-GMPS; source: E. coli BL21(DE3), purified (glutathione-sepharose)
Question: Does B5 bind (USP7-CTD (535-1102) [4])?
Answer: binds

Question: For {FITC′}-TGKGKWKR [FITC-UHRF1 peptide], which Kd (USP7-CTD (535-1102) [5]) is on record?
Answer: 5.6 µM

B6: ICP0 (expressed in 293T cells) (natural protein)
chain: MEPRPGASTRRPEGRPQREPAPDVWVFPCDRDLPDSSDSEAETEVGGRGDADHHDDDSASEADSTDTELFETGLLGPQGVDGGAVSGGSPPREEDPGSCGGAPPREDGGSDEGDVCAVCTDEIAPHLRCDTFPCMHRFCIPCMKTWMQLRNTCPLCNAKLVYLIVGVTPSGSFSTIPIVNDPQTRMEAEEAVRAGTAVDFIWTGNQRFAPRYLTLGGHTVRALSPTHPEPTTDEDDDDLDDADYVPPAPRRTPRAPPRRGAAAPPVTGGASHAAPQPAAARTAPPSAPIGPHGSSNTNTTTNSSGGGGSRQSRAAAPRGASGPSGGVGVGVGVVEAEAGRPRGRTGPLVNRPAPLANNRDPIVISDSPPASPHRPPAAPMPGSAPRPGPPASAAASGPARPRAAVAPCVRAPPPGPGPRAPAPGAEPAARPADARRVPQSHSSLAQAANQEQSLCRARATVARGSGGPGVEGGHGPSRGAAPSGAAPLPSAASVEQEAAVRPRKRRGSGQENPSPQSTRPPLAPAGAKRAATHPPSDSGPGGRGQGGPGTPLTSSAASASSSSASSSSAPTPAGAASSAAGAASSSASASSGGAVGALGGRQEETSLGPRAASGPRGPRKCARKTRHAETSGAVPAGGLTRYLPISGVSSVVALSPYVNKTITGDCLPILDMETGNIGAYVVLVDQTGNMATRLRAAVPGWSRRTLLPETAGNHVMPPEYPTAPASEWNSLWMTPVGNMLFDQGTLVGALDFRSLRSRHPWSGEQGASTRDEGKQ
notes: also called pCI-110 ICP0; source: 293T cells, transfected (pCI-110 ICP0), in lysate
Question: With B6 as the binder, how does the “fold decrease of recovery against WT USP7” value [1] read?
Answer: 2 fold

B7: endogenous UHRF1 (natural protein, human (endogenous in 293T), UniProt Q96T88 1-793, looked up)
chain: MWIQVRTMDGRQTHTVDSLSRLTKVEELRRKIQELFHVEPGLQRLFYRGKQMEDGHTLFDYEVRLNDTIQLLVRQSLVLPHSTKERDSELSDTDSGCCLGQSESDKSSTHGEAAAETDSRPADEDMWDETELGLYKVNEYVDARDTNMGAWFEAQVVRVTRKAPSRDEPCSSTSRPALEEDVIYHVKYDDYPENGVVQMNSRDVRARARTIIKWQDLEVGQVVMLNYNPDNPKERGFWYDAEISRKRETRTARELYANVVLGDDSLNDCRIIFVDEVFKIERPGEGSPMVDNPMRRKSGPSCKHCKDDVNRLCRVCACHLCGGRQDPDKQLMCDECDMAFHIYCLDPPLSSVPSEDEWYCPECRNDASEVVLAGERLRESKKKAKMASATSSSQRDWGKGMACVGRTKECTIVPSNHYGPIPGIPVGTMWRFRVQVSESGVHRPHVAGIHGRSNDGAYSLVLAGGYEDDVDHGNFFTYTGSGGRDLSGNKRTAEQSCDQKLTNTNRALALNCFAPINDQEGAEAKDWRSGKPVRVVRNVKGGKNSKYAPAEGNRYDGIYKVVKYWPEKGKSGFLVWRYLLRRDDDEPGPWTKEGKDRIKKLGLTMQYPEGYLEALANREREKENSKREEEEQQEGGFASPRTGKGKWKRKSAGGGPSRAGSPRRTSKKTKVEPYSLTAQQSSLIREDKSNAKLWNEVLASLKDRPASGSPFQLFLSKVEETFQCICCQELVFRPITTVCQHNVCKDCLDRSFRAQVFSCPACRYDLGRSYAMQVNQPLQTVLNQLFPGYGNGR
notes: UHRF1 (NP95), endogenous in 293T cells; also called NP95; source: endogenous, 293T lysate
Question: B7 was tested. Which “percent binding relative to recovery with WT USP7” value [1] did it give?
Answer: 21%

B8: GST-ICP0 619-633 (peptide)
chain: RKCARKTRHAETSGA
notes: ICP0 of herpes simplex virus 1, residues 619-633; also called ICP0 peptide 619–633; source: E. coli BL21(DE3), purified (glutathione-sepharose)
Question: Does B8 bind (full length USP7 [3])?
Answer: binds

Question: Does B8 bind (USP7-CTD (535-1102) [4])?
Answer: binds

Question: Which results are given for {FITC′}-GPRKCARKTRH [FITC-labeled ICP0 peptide]?
Answer: Kd (full length USP7 [6]): 3.2 µM; Kd (USP7 Ubl123 D764A): > 100 µM; Kd (USP7 Ubl123 D762A/D764A): > 100 µM; Kd (USP7 Ubl123 (535-889) [7]): 1.6 µM; Kd (USP7 Ubl123 E759A): > 100 µM; Kd (USP7 Ubl123 D762A): > 100 µM

B9: GST-ICP0 615-629 (peptide)
chain: PRGPRKCARKTRHAE
notes: ICP0 of herpes simplex virus 1, residues 615-629; also called ICP0 peptide 615–629; GST-ICP0 peptide; source: E. coli BL21(DE3), purified (glutathione-sepharose)
Question: Does B9 bind (full length USP7 [3])?
Answer: binds

Question: Does B9 bind (USP7-CTD (535-1102) [4])?
Answer: binds

Question: Does B9 bind (USP7 Ubl12 (535-776))?
Answer: binds

Question: Does B9 bind (USP7 Ubl123 (535-889) [8])?
Answer: binds
